What all share (type): cell-based, human
One assay concerns MU89 melanoma cells. In words: Tumor cell/T cell co-culture IL-2 ELISA (Melan-A/MART-1 specific TCR Jurkat line J-TCR-M1 as responder). An excerpt: The assay relies on the use of an antigen-specific responder T cell line. […] The chosen TCR reacts specifically to a Melan-A/MART-1 decapeptide (26[…]35) presented by HLA-A2, with appropriate triggering of T cell activation. We then used a lentiviral vector system for transduction of this specific TCR into the J.RT3-T3.5 T cell line, a Jurkat cell derivative which fails to express endogenous surface TCR through a mutation in its beta chain.
We evaluated several candidate melanoma cell lines for the ability to stimulate the J-TCR-M1 cell line. Levels of Melan-A/MART-1 (determined by intracellular staining and flow cytometry) and corresponding levels of induced IL-2 (determined by coculture with J-TCR-M1 and IL-2 ELISA) were tested for different melanoma cell lines.
The 480 compounds were tested in six parallel 96 well plates. The first two columns (16 wells) of each plate were used for standards (8 wells), untreated controls (4 wells), and positive controls (4 wells). The other ten columns (80 wells) were used for testing compounds in separate wells. A100 μl aliquot containing 5×10^4 MU89 cells was added to wells that contained 0.1 μl of each test drug diluted in 50 μl of RPMI media. The plates were incubated with drug for 72 hours at 37° C. in a humidified incubator with 5% CO2. After 72 hours, each well received 2.5×10^4J-TCR-M1 cells in 50 μl medium, and then incubated a further 24 hours. At the conclusion of the 24 hour co-culture period, each plate was centrifuged to pellet the cells and 100 μl supernatant fluid was collected from each well and plated in a parallel 96 well flat bottom well for IL-2 ELISA assay.
Melanoma cells were treated with hits from the primary screen for three days prior to counting and plating for the coculture assay (cells were washed and resuspended in fresh medium that no longer contained the treatment agents during the co-culture). A100 μl volume of 5×10^5 cells/ml tumor cells were mixed with 50 μl of […] T cells in a 96-well V-bottom plate and incubated overnight (16-24 hours). Plates were centrifuged to pellet the cells and 100 μl of supernatant fluid was removed from each well for cytokine assay. To assess antigen-specific T cell responses, a final concentration of 3.33 μg/ml Melan-A/MART-1 peptide (26[…]35 (A27L from wild type)) was added to the co-culture.
The protocol for evaluation of the cytokine IL-2 was performed using a the BD OptEAI kit, human IL-2 ELISA set from BD Biosciences (San Diego, Calif.) following the manufacturer's recommendations. The absorbance 450 nm was read in a BioRad 3550 plate reader. A standard curve using known concentrations of IL-2 (from 500 to 8 pg/ml) was included in each ELISA plate. IL-2 levels for experimental samples (pg/ml) were calculated from the standard curve.
100 μl of 5×10^5 tumor cells/ml were mixed with 50 μl of T cells (at 5×10^5 cells/ml) in a 96-well V-bottom plate and incubated overnight (16-24 hours). Plates were centrifuged to pellet the cells and 120 μl of supernatant fluid was removed from each well for cytokine assay. To assess antigen-specific T cell responses, 3.33 μg/ml Melan-A/MART-1 peptide was added to the co-culture.
The protocols for evaluation of either IL-2 or IFN-gamma were similar, following the manufacturer's recommendations. A standard curve using known concentrations of each cytokine was included in each ELISA experiment. ELISA plates were coated with capture antibody and then washed with 1×PBS 0.5% Tween-20. Wells were blocked with 1×PBS 1% FBS for 1 hour and rewashed.

Assay [1] concerns Melan-A/MART-1 promoter EGFP reporter cell line. Kind of assay: Melan-A/MART-1 promoter-driven EGFP reporter cell line, secondary screen of hits (FIG. 6). The following applies: over a dose range (FIG. 6). An excerpt:
FIG. 6 is a series of graphs showing EGFP detection of in cells treated with the indicated hits showing ability to upregulate a cell line containing a Melan-A/MART-1 promoter-driven EGFP reporter. Note that the x-axes (drug concentrations) and y-axes (EGFP fluorescent measurement) cover different ranges to best indicate the activities of individual compounds. Data from a single determination, representative of at least three confirmatory experiments, is shown.
The EGFP reporter driven by the Melan-A/MART-1 promoter represents one such orthogonal assay because it evaluates directly the effect of the compounds on Melan-A/MART-1 promoter activity independent of Melan-A/MART-1 protein expression. Compounds passing the other secondary screens, but failing this one, may affect antigen presentation by other mechanisms such as increasing the efficiency of antigen processing, enhancing MHC Class I levels, or by stabilizing the antigen/MHC complex.
As for the primary screen, 17-AAG and aphidicolin, had the largest impact on EGFP stimulation, inducing 3-fold and 5-fold increases respectively. […]
(§1) Cells were fixed with 1% formaldehyde, permeabilized with 0.1% saponin, stained with monoclonal antibodies to melanocyte antigens. […] The level of EGFP was determined by flow cytometry of unfixed cells that were washed and resuspended in 1×PBS.

The subject of a further assay is melanomas and gliomas. Kind of assay: Intracellular staining for Melan-A/MART-1 and gp100, melanomas and gliomas exposed to hits (Table 10). As to conditions: in most cell lines; three days (Table 10). As to the method: FIG. 7 is a series of graphs showing intracellular staining and flow histograms used to generate data for Table 10. All cells were stained with an antibody to gp100. Thin line represents untreated cells, bold line represents cells treated for three days with 17-AAG (1 μg/ml). Numbers represent geometric mean of flow histograms.
A further orthogonal secondary screen is the measurement of Melan-A/MART-1 and gp100 in additional melanoma cell lines and gliomas in response to the primary hit candidates. […] If the compounds of interest increase antigen levels in multiple melanoma cell lines and two gliomas, the effects of the compounds are clearly not limited to a single melanoma cell type.
As for the primary screen, 17-AAG and aphidicolin, had the largest impact on EGFP stimulation, inducing 3-fold and 5-fold increases respectively. Four additional compounds: damnacanthal, flunarizine, OBAA, and dantrolene stimulated EGFP more than 2-fold. We then tested the ability of the hit compounds to induce antigen increases in a more diverse set of tumors including melanomas and gliomas. […]
as §1

The subject of another assay is MU89 melanoma cell line. Kind of assay: Antibody staining and flow cytometry (intracellular Melan-A/MART-1, gp100, TRP-2; surface MHC Class I/II). As to the method:
(§2) Cells were fixed with 1% formaldehyde, permeabilized with 0.1% saponin, stained with monoclonal antibodies to melanocyte antigens. Antibodies were obtained with specificity for: MART-1 from Vector Labs (Burlingame, Calif.); gp100 HMB45 from DakoCytomation (Carpinteria, Calif.) and then visualized with goat anti-mouse FITC-conjugated secondary antibody from Invitrogen (Fredrick, Md.). The level of EGFP was determined by flow cytometry of unfixed cells that were washed and resuspended in 1×PBS.
(§3) Cells were plated at a density of 1×10^5 in 1 ml of medium in a 24-well plate and cultured for varying times as indicated in results. […] After incubation, cells were collected by trypsinization and then evaluated by flow cytometry.
(§4) Intracellular staining and flow cytometric analyses of cytoplasmic Melan-A/MART-1, and gp100 expression were performed as described previously. Cells were fixed with 1% formaldehyde, permeabilized with 0.1% saponin, stained with monoclonal antibodies to melanocyte antigens. Antibodies were obtained with specificity for: Melan-A/MART-1 from Vector Labs (Burlingame, Calif.); gp100/HMB45 from DakoCytomation (Carpinteria, Calif.) and then visualized with goat anti-mouse FITC-conjugated secondary antibody from Invitrogen (Frederick, Md.). The level of EGFP was determined by flow cytometry of unfixed cells washed and resuspended in 1×PBS. Surface staining of MHC Class I was carried out using the antibody W6/32 on cells harvested with Cell Stripper from MediaTech Inc. (Manassas, Va.) and carried out on ice.
(§5) Cell were seeded at 1×10^6 cells in a T25 flask with 10 ml of media for the 4 day IFN-beta pre-treatments. Cells were then harvested and plated in 24 well plate at 1×10^5 cells per well in 1 ml of media for 3 day treatments.
(§6) For surface staining of HLA Class I and II antigens, cells were harvested using CellStripper™ from Mediatech (Manassas, Va.). All staining steps were performed on ice. Following a first incubation with antibody to Class I (W6/32) or Class II (L243) for 30 minutes. Stained cells were washed twice with cold PBS and then stained with a goat anti-mouse FITC secondary antibody to allow for quantitative analysis by flow cytometry. For evaluation of cytoplasmic antigens, including Melan-A/MART-1 and gp100, cells were first fixed in paraformaldehyde and permeabilized with saponin as previously described. Staining for cytoplasmic antigens was carried out at room temperature (22° C.).
For orientation: Flow cytometry measures light scatter and fluorescence of single cells or particles in a stream.

Assay [2] deals with U-118 MG glioma cell line. Kind of assay: Antibody staining and flow cytometry (intracellular gp100; surface MHC Class I/II). As to the method: as §2, §3, §4, §5, §6
Assay [3] relates to HeLa cervical carcinoma cells. In words: Surface antibody staining and flow cytometry (MHC Class I/II). As for the experimental part:
as §4, §5, §6

In assay [4] the test system is MCF-7 breast cancer cells. The assay is described as above. The following applies: MCF-7; single agent. As for the experimental part:
as §4, §5, §6

For assay [5], the system named is Raji B cell lymphoma cells. Described as above. As for the experimental part: as §4, §5, §6
The next assay has as its system U2-OS osteosarcoma cells. The assay is described as above. The following applies: U2-OS. As to the method:
as §4, §5, §6

Assay [6] has as its system EBV-19 B cell lymphoma cells. The assay is described as above. As to conditions: three days, IFN-β 5000 Units/ml, IFN-γ 100 ng/ml. As to the method: as §4, §6
The test system of assay [7] is Jurkat T cell lymphoma cells. The assay is described as above. As for the experimental part:
as §4, §6

In another assay the test system is tumor cell lines. Kind of assay: MHC Class I and Class II surface staining, statements over a panel of tumor cell lines. As to conditions: HeLa, MCF-7, U2-OS, MU-89, U118, Jurkat, Raji (Table 19). As to the method:
as §6

[8] abbreviates: MU89, three days, IFN-β 5000 Units/ml, IFN-γ 100 ng/ml, PU-H71 0.3 mg/ml.
Where [9] appears, read: three days, IFN-β 5000 Units/ml, IFN-γ 100 ng/ml, PU-H71 0.3 mg/ml.

Two molecules from US20140335050A1, “METHODS, COMPOSITIONS, AND KITS FOR THE TREATMENT OF CANCER” (The General Hospital Corporation, priority 2011, published 2014) can be followed below.

As for `C[C@@]1(CO)[C@H](O)CC[C@@]2(C)[C@H]1CC[C@H]1C[C@@H]3C[C@@]12CC[C@]3(O)CO` [Aphidicolin], the “Fold increase (IL-2 relative to untreated controls), hits from pilot screen” value in the assay on MU89 melanoma cells (about 10 μM, 72 hours treatment, then 24 hours co-culture) is recorded as 2.0 fold. In the assay on MU89 melanoma cells (hits re-tested over a wider dose range (FIG. 5)), the “IL-2 stimulation in repeat of the tumor T cell co-culture IL-2 ELISA” value was around 5 fold. Further, the “EGFP stimulation (Melan-A/MART-1 promoter reporter)” value in assay [1] amounted to 5 fold. In the assay on melanomas and gliomas, the “Protein increase (Melan-A/MART-1, gp100 intracellular staining)” value is on record as “inducing high levels of protein increases at low concentrations”.

B1: IFN-γ: IFN-γ-1b stock solution 100 μg/ml in PBS; SEQ ID NO: 5 (protein)
chain: MQDPYVKEAENLKKYFNAGHSDVADNGTLFLGILKNWKEESDRKIMQSQIVSFYFKLFKNFKDDQSIQKSVETIKEDMNVKFFNSNKKKRDDFEKLTNYSVTDLNVQRKAIHELIQVMAELPPAAETGKRKRSQMLFRGR
modifications: IFN-gamma-1b
As to B1, the “MHC Class I, geometric mean of surface staining (W6/32)” value was 213 in the assay on MU89 melanoma cell line (setting [8]); 137 in [2] (Giloma-118, three days, IFN-β 5000 Units/ml, IFN-γ 100 ng/ml, PU-H71 0.3); 637 in assay [3] (HeLa, three days, IFN-β 5000 Units/ml, IFN-γ 100 ng/ml, PU-H71 0.3); 117 in [5] (setting [9]); 284 with U2-OS osteosarcoma cells (setting [9]); 277 in assay [6] (PU-H71 0.3). Moreover, the “MHC Class I, geometric mean of surface staining (W6/32)” value in [7] (three days, IFN-β 5000 Units/ml, IFN-γ 100 ng/ml, PU-H71 0.3 μg/ml) is on record as 87. Further, the “MHC Class II, geometric mean of surface staining (L2443)” value is 139 in the assay with MU89 melanoma cell line (setting [8]); 40 in assay [2] (Giloma-118, three days, IFN-β 5000 Units/ml, IFN-γ 100 ng/ml, PU-H71 0.3 mg/ml); 214 in [3] (HeLa, three days, IFN-β 5000 Units/ml, IFN-γ 100 ng/ml, PU-H71 0.3 mg/ml); 142 in assay [5] (setting [9]); 237 in the assay on U2-OS osteosarcoma cells (setting [9]); 118 in assay [6] (PU-H71 0.3 mg/ml). Also, the “MHC Class II, geometric mean of surface staining (L2443)” value in [7] (setting [9]) is given as 1. Also, the “L243 (MHC Class II surface staining)” value is 57.6 in the assay with MU89 melanoma cell line (MU-89, single agent); 65.3 in assay [2] (U118, single agent); 86.0 in [3] (HELA, single agent); 59.1 in [4]; 339.3 in [5] (single agent); 87.6 with U2-OS osteosarcoma cells (single agent). In [7] (single agent), the “L243 (MHC Class II surface staining)” value stood at 1.1. The “W6/32 (MHC Class I surface staining)” value is 138.0 with MU89 melanoma cell line (MU-89, single agent); 250.5 in [2] (U118, single agent); 464.8 in [3] (HELA, single agent); 478.5 in assay [4]; 117 in assay [5] (single agent); 293.2 with U2-OS osteosarcoma cells (single agent). For the same molecule, in assay [7] (single agent), the “W6/32 (MHC Class I surface staining)” value stood at 86.5. In addition, in the assay with tumor cell lines, the “Class I MHC expression over the tumor panel” value is reported as “induce significant increases”. Also, in the assay on tumor cell lines, the “Class II MHC expression over the tumor panel” value is given as “induced significant Class II”.
